Results taken from US12723255B2, “Herbicide tolerance genes and methods of use thereof” (priority 2014, dated 2026).
“And” between values parts separate entries of the source, which are not always exact repeats. Identical values can stand only once. Like-named read-outs stand apart in the source and are kept apart here.

What was measured:
[1] = system: transgenic maize plants; experiment: R1 trait efficacy field trial (quizalofop-P and haloxyfop); assay type: in vivo; conditions: 2× quizalofop-P pre-plant, 2× haloxyfop V4, 2× quizalofop-P V8
Procedure: To assess the effect of using a CTP to target the engineered protein to the plant cell chloroplast, transgenic plants comprising a transgene insert with and without a CTP operably linked to the protein-coding sequence were compared. […] This unexpected finding was tested again in trait efficacy field trials with R1 plants comprising either MON-HT51 with or without a CTP operably linked to the protein-coding sequence or MON-HT55 with or without a CTP operably linked to the protein-coding sequence. These R1 plants were single-copy, but were still segregating. In this field trial, seed was planted in the field and treated as follows: 2× (0.16 lb ai/acre) quizalofop-P at pre-plant, 2× (0.14 lb ai/acre) haloxyfop at V4 growth stage, then 2× quizalofop-P at V8 growth stage. A higher percentage of plants comprising a CTP operably linked to the protein-coding sequence survived quizalofop-P and haloxyfop applications and had lower injury scores compared to plants not comprising a CTP operably linked to the protein-coding sequence. This confirmed the unexpected finding that a CTP operably linked to the protein-coding sequence confers higher plant tolerance to herbicide application for the engineered proteins.

[2] = enzyme kinetic measurements with purified protein; assay type: biochemical; conditions: for Km: 0-1280 uM substrate; for Vmax Fenoxaprop / Vmax Fluazifop / Vmax Haloxyfop / Vmax Quizalofop-P: relative values
Procedure: The high-throughput herbicide degradation enzyme assay was designed to assay the enzymatic activity of the engineered proteins towards various herbicides using crude bacterial extract. The engineered protein's oxygenase activity (that is, its enzymatic activity) was measured by an end point colorimetric assay utilizing detection of phenol products through measurement of absorbance at 510 nm from 4-aminoantipyrine and potassium ferricyanide. This assay was based on the assay described in Fukomori and Hausinger, Journal of Biological Chemistry (1993) 268(32):24311-24317. Enzyme reactions were assayed in 96-well plates in a total volume of 150ul that contained: 20 mM MOPS pH 6.75, 50-200 uM NH4FeSO4, 50-200 uM sodium ascorbate, 1 mM alpha-ketoglutarate (aKG), 10 ul of E. coli cell lysate containing expressed engineered protein, and substrate (either an AOPP herbicide or phenoxy acid herbicide). […] Absorbance measurements were made on a standard laboratory spectrometer. Assays were scaled as needed to enhance throughput. Standard curves were generated using purified protein or product standards.
Further protein characterization, such as Km, Vmax, and crystal structure analysis, was performed using the five engineered proteins from Table 2. For this detailed analysis, purified protein was prepared as follows: 2 ml overnight cultures of E. coli expressing a transgene encoding a given MON-HT protein were used to inoculate 500 ml of broth and grown at 37° C. for 4 hours followed by culture at 15° C. for approximately 36 hours. Then 250 ml of the 500 ml bacterial culture was pelleted by centrifugation and resuspended in 25 ml of extraction buffer (20 mM Tris, pH 7.8, 300 mM NaCl, 5 mM beta-mercaptoethanol (BME), 20 mM imidazole (Fluka/Sigma-Aldrich, St. Louis, MO), 125 units/ml of benzonase and 10K units/ml of lysozyme (Novagen, Darmstadt, Germany). The cell slurry was passed through a cell disruptor once at 20000 psi and then this cell lysate was clarified by centrifugation at 35,000×g for 20 min at 4° C. The supernatant containing the soluble His-tagged proteins was used for protein purification. For this purification, the supernatant was applied to a 1 ml HisTrap™ FF column (Nickel Sepharose) (GE Healthcare, Piscataway, NJ) using an AKTaxpress™ system (GE Healthcare, Piscataway, NJ) following the standard manufacturer's protocol. The wash buffer consisted of: 20 mM Tris pH 7.8, 300 mM NaCl, 20 mM imidazole and 5 mM BME. The composition of elution buffer was the same as the wash buffer except with 500 mM imidazole. The eluate from the nickel column was desalted on a Quick Spin Protein Sephadex G-25 fine column (Roche Applied Science, Indianapolis, IN) following the manufacturer's protocol. The eluted protein was in buffer consisting of: 20 mM Tris pH 7.8, 50 mM NaCl and 5 mM BME. Protein extract purity was assessed by SDS-PAGE analysis. Protein concentration was determined by Bradford assay using Bio-Rad Protein Assay dye reagent (Biorad, Hercules, CA, cat no 500-0006).
Purified protein for the five engineered proteins was analyzed using the enzyme assay described in this Example 1, but with four different AOPP herbicides as substrates: quizalofop-P, haloxyfop, fenoxaprop, and fluazifop. Standard curves were generated using 2,4-dichlorophenol (2,4-DCP), which was used to produce a general phenol standard curve. The amount of phenol generated in the assay by the engineered proteins was calculated based on this standard curve. The controls were purified wild-type enzyme, no enzyme, and no substrate. Enzyme kinetic measurements of the five engineered proteins was done using 0, 20, 40, 80, 160, 320, 640, or 1280 uM of quizalofop-P, haloxyfop, fenoxaprop, or fluazifop herbicides.

Molecule | Average % Herbicide Injury ([1]; CTP No) | Average % Herbicide Injury ([1]; CTP Yes) | Km ([2]; read-out: Km Fenoxaprop) | Km ([2]; read-out: Km Fluazifop) | Km ([2]; read-out: Km Haloxyfop) | Km ([2]; read-out: Km Quizalofop-P) | Vmax Fenoxaprop [2] | Vmax Fluazifop [2] | Vmax Haloxyfop [2] | Vmax Quizalofop-P [2]
MON-HT51: engineered oxygenase protein, amino acid sequence SEQ ID NO:1 (protein) MHAALSPLSQRFERIAVQPLTGVLGAEITGVDLREPLSDSTWNEILDAFHTYQVIYFPGQAITNEQHIAFSRRFGPVDPVPLLKSIEGYPEVQMIRREANESGRVIGDDWHTDSSFLDAPPAAVVMRAIDVPEHGGDTGFLSMYTAYDALSDGLKKLISGLNVVHSATRVFGSLYQAQNRRFSNTSVKVMDVADGDRETVHPLVVTHPGSGRKGLYVNQVYCQRIEGMSEKESEPLLSFLFAHATKPEFTCRVRWKKDQVLVWDNLCTMHYAINDYHGQTRILHRTTVGGVRPAR | 95% | 35% | 870 µM | 4 µM | 250 µM | 570 µM | 180 | 12 | 48 | 120
MON-HT55: engineered oxygenase protein, amino acid sequence SEQ ID NO:11 (protein) MHAALSPLSQRFERIAVQPLTGVLGAEITGVDLREPLDDSTWNEILDAFHTYQVIYFPGQAITNEQHIAFSRRFGPVDPVPLLKSIEGYPEVQMIRREANESGRVIGENWHTDSTFLDAPPAAVVMYAKEIPPYGGDTLFTSMYTAWETLSPTMQATIEGLNVVHSATRVFGSLYQAQNRRFSNTSVKVMDVDAGDRETVHPLVVTHPETGRKGLYVNQVYCQRIEGMSEKESEPLLSFLFAHATKPEFTCRVRWQEGDVLVWDNLCTQHYAVPDYAGKFRYLTRTTVGGVRPAR | 49% and 90% | 24% and 25% | 200 µM | 50 µM | 450 µM | 250 µM | 450 | 320 | 190 | 320
